Target: RAD18-CFP (human) (UniProt Q9NS91)
Assay: FRET or BRET

UniProt Q9NS91, sequence (Q9NS91 whole entry): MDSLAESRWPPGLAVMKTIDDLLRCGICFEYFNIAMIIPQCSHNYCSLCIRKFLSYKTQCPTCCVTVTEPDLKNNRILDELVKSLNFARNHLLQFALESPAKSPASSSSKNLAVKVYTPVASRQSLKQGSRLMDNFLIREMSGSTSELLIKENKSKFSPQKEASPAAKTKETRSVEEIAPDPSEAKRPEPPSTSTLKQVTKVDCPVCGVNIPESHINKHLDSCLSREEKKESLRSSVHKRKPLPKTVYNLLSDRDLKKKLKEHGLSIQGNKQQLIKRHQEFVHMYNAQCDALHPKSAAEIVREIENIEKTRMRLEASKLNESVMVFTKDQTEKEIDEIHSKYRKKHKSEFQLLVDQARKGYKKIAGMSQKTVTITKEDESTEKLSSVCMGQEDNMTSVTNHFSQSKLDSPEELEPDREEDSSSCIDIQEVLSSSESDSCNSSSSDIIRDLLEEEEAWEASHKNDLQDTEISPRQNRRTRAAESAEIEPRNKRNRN

RAD6A-YFP (from UniProt P49459 1-152) (natural protein)
FRET efficiency: 72%
